Data from patent US20090081197A1, “Methods for Selection of Melanocortin Receptor-Specific Agents for Treatment of Obesity” (Palatin Technologies, Inc., priority 2007, published 2009).

What was measured:
[1] = target: human melanocortin 5 receptor (human) (UniProt P33032); test: radioligand competition, [I125]-NDP-α-MSH, hMC5-R membranes, 1 µM compound
[2] = target: human melanocortin 3 receptor (human) (UniProt P41968); test: radioligand competition, [I125]-NDP-α-MSH, hMC3-R membranes
[3] = target: human melanocortin 4 receptor (human) (UniProt P32245); test: cell-based or functional assay
[4] = target: MC1-R of B-16 mouse melanoma cells (mouse) (UniProt Q01727); test: radioligand competition, [I125]-NDP-α-MSH, B-16 membranes, 1 µM compound
[5] = target: human melanocortin 4 receptor (human) (UniProt P32245); test: radioligand competition, [I125]-NDP-α-MSH, hMC4-R membranes, 1 µM compound
[6] = target: human melanocortin 3 receptor (human) (UniProt P41968); test: radioligand competition, [I125]-NDP-α-MSH, hMC3-R membranes, 1 µM compound
[7] = target: human melanocortin 5 receptor (human) (UniProt P33032); test: radioligand competition, [I125]-NDP-α-MSH, hMC5-R membranes
[8] = target: human melanocortin 4 receptor (human) (UniProt P32245); test: radioligand competition, [I125]-NDP-α-MSH, hMC4-R membranes
[9] = target: MC1-R of B-16 mouse melanoma cells (mouse) (UniProt Q01727); test: radioligand competition, [I125]-NDP-α-MSH, B-16 membranes

Chain of MC1-R of B-16 mouse melanoma cells (mouse) (Q01727 whole entry): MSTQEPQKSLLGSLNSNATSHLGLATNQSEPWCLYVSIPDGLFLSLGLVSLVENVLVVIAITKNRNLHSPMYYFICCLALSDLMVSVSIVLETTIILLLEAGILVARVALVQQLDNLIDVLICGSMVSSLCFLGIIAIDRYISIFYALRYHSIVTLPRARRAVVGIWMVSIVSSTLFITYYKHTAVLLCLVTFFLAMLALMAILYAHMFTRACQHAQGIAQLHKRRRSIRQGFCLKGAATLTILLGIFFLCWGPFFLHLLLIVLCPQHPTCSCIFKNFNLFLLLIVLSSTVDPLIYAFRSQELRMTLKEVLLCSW
Chain of human melanocortin 5 receptor (human) (P33032 whole entry): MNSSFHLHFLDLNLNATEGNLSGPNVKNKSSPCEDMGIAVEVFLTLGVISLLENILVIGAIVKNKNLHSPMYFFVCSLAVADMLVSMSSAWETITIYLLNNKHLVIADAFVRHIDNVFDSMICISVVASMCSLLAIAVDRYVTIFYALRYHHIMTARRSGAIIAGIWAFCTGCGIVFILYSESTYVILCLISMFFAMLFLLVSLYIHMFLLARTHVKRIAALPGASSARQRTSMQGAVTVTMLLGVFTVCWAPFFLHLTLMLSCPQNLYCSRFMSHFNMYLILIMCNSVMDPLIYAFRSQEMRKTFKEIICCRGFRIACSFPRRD
Chain of human melanocortin 4 receptor (human) (P32245 whole entry): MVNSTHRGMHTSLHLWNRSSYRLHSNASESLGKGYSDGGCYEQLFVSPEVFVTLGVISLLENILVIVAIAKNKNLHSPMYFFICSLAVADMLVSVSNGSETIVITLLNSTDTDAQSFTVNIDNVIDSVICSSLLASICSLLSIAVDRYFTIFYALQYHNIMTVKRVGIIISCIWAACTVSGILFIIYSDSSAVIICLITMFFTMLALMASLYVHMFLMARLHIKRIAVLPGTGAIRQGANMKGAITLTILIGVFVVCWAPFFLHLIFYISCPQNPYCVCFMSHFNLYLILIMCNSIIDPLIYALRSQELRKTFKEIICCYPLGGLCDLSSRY
Chain of human melanocortin 3 receptor (human) (P41968 whole entry): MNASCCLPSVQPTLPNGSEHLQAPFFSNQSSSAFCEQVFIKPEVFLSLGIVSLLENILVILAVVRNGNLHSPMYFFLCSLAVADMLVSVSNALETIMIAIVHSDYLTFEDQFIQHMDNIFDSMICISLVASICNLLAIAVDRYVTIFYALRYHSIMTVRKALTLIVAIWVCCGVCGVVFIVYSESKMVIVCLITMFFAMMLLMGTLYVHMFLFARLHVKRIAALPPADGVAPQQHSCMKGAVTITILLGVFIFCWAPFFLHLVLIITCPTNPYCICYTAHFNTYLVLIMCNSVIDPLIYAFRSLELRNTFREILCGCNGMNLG

Inhibition at 1 µM (NDP-α-MSH) [1] | Ki [2] | EC50 (nM), normal system (cAMP) [3] | intrinsic activity, normal system (cAMP) [3] | Inhibition at 1 µM (NDP-α-MSH) [4] | Inhibition at 1 µM (NDP-α-MSH) [5] | Inhibition at 1 µM (NDP-α-MSH) [6] | Ki [7] | Ki [8] | Ki [9] | EC50 (nM) (cAMP), High Receptor Density System [3] | Efficacy/Intrinsic Activity (cAMP), High Receptor Density System [3] | EC50 (nM) (cAMP), 0.1 ng/mL Doxycycline [3] | EC50 (nM) (cAMP), 10 ng/mL Doxycycline [3] | Efficacy/Intrinsic Activity (cAMP), 0.1 ng/mL Doxycycline [3] | Efficacy/Intrinsic Activity (cAMP), 10 ng/mL Doxycycline [3] | Substance
63% | 453 nM | > 1000 nM | 0.2 | 25% | 92% | 35% | 300 nM | 40 nM | 897 nM |  |  |  |  |  |  | 2-naphthylacetyl-1-amino-1-cyclohexane-carbonyl-D-Phe(4-Cl)-Arg-Trp-NH2 (peptide)
64% | 125 nM | 17 nM | 0.3 | 46% | 98% | 85% | 313 nM | 7 nM | 338 nM | 180 nM | 0.63 |  |  |  |  | 7'-amino-heptanoyl-Ser(Bzl)-D-Phe(4-Cl)-Arg-S-(-)-1-(1-naphthyl)ethylamide (peptide)
 |  |  |  |  |  |  |  |  |  |  |  | 3 nM | 0.9 nM | 0.9 | 1 | PT-141 (peptide)
